Reference: patent publication US20240316157A1, “PHARMACEUTICAL COMPOSITION OF PCSK9 INHIBITOR AND GLP-1 RECEPTOR AGONIST” (Gan & Lee Pharmaceuticals Co., Ltd., priority 2021, published 2024)

What was measured:
[1] = test system: wild-type hamsters; test: Effect of the combination of Alirocumab and semaglutide on blood glucose in hamsters; format: in vivo, hamster; details: for Blood glucose (relative concentration): 7th day after dosing relative to baseline, s.c. once every two days, high-fat high-sugar feed, x±s; for Blood glucose decline rate E value: 7th day, versus control group, recorded as 0 if not significantly different from control
Procedure: The experimental animals in this Example were wild-type hamsters, and the hamsters were grouped and administered according to the following standard: • 1) Control group: injection of excipient samples, subcutaneous injection (administration of […]), once every two days; • 2) Alirocumab group: injection of Alirocumab sample (Alirocumab 10 mg/kg), subcutaneous injection, once every two days; • 3) Semaglutide group: injection of semaglutide sample (semaglutide 0.12 mg/kg), subcutaneous injection, once every two days; • 4) Alirocumab+semaglutide group: injection of Alirocumab (Alirocumab 10 mg/kg) and semaglutide (semaglutide 0.12 mg/kg) by subcutaneous injection, the frequency of administration was once every two days.
On the first day of the experiment, each group of wild-type hamsters was given high-fat and high-sugar feed (containing 10% lard, 10% cholesterol, and 60% fructose) and injected with drugs according to the above dosing regimen for each group, and blood was collected from the inner canthus vein of the hamster on the day before administrating and 7th day after dosing, plasma was anticoagulated with sodium heparin, and plasma was obtained by centrifugation of the whole blood at 4° C. for 10 min at 4000 rpm, and the blood glucose level was detected by glucose assay kit (Biosino Bio-Technology and Science Incorporation).
The obtained blood glucose data were normalized according to the following method: taking the blood glucose of each group before the administration of the drug as the baseline, the relative concentration of the corresponding time point obtained by comparing the blood glucose at the monitoring point after the administration of the drug to the baseline glucose, the relative concentration of blood glucose was expressed as x±s, and the decline rate of the blood glucose of each administration group was calculated by using the analysis of variance using the GraphPad Prism software, in which x means the average value of data, and s denotes the standard deviation.
Decline rate of blood glucose: E=[(relative blood glucose of […])/relative blood glucose of control group]×100%
Note: If there is no significant difference between the relative blood glucose value of the administered group and the relative blood glucose of the control group, the value of E is recorded as 0.
Calculation method of synergistic effect: the determination was made by using Zhengjun Jin's Q value, in which the Q value was obtained by the following formula: Q=Ea+b/(Ea+Eb−Ea×Eb); wherein Ea+b indicated the decline rate of detection indexes of the combination and mixed administration of the two drugs, and Ea, Eb indicated the decline rate of detection indexes of the two drugs used alone. If Q is between 0.85 and 1.15, it means that the two drugs have an additive effect; Q>1.15, the two drugs have a synergistic effect; Q<0.85, the two drugs have an antagonistic effect.

[2] = test system: humanized mice overexpressing PCSK9 (B6-hPCSK9); test: Animal efficacy of Evolocumab in combination with Compound 5: body weight, fasting blood glucose, LDL-C; format: in vivo, mouse
Excerpt: In this example, humanized mice overexpressing PCSK9 (B6-hPCSK9) (males, 6 weeks old) were used, totaling 30 mice. These humanized mice were divided into six groups: K0-K5, with 5 mice per group. K0 served as the NC control group (fed a high-fat feed throughout the experiment), while K1-K5 were experimental groups. After a 1-week adaptation period with growth and breeding feed (Keao Xieli Feed), they were fed a high-fat diet for one month (Xietong Pharmaceutical Bio-engineering), and dosing was initiated after the high-fat diet feeding.
The dosing for each experimental group was done via subcutaneous injection once in total, with the dose administrated calculated based on the dose of Evolocumab. […] If the dose was doubled (2×), the dose was doubled accordingly.
Throughout the experiment, various indicators were monitored with the following frequencies: for weight monitoring, the weight was measured and recorded before dosing and then every other day after blood collection, this was performed a total of 3 times. […] Blood glucose levels were measured using a glucose assay kit (provided by Biosino Bio-Technology and Science Inc). […] LDL-C in the serum samples was measured using an LDL-C test kit (Nanjing Jiacheng Bioengineering Institute).

[3] = test system: wild-type hamsters; test: Effect of the combination of Evolocumab and Compound 5 on blood glucose in hamsters; format: in vivo, hamster
Procedure: The experimental animals in this Example were wild-type hamsters, and the hamsters were grouped and administered according to the following standard: • 1) Control group: subcutaneous injection of excipient samples, subcutaneous injection (administration of 2 μL/kg), once every two days; • 2) Evolocumab group: injection of Evolocumab samples (Evolocumab 30 mg/kg) by subcutaneous injection, once every two days; • 3) Compound 5 group: injection of compound 5 sample (compound 5: 0.12 mg/kg), using subcutaneous injection, once every two days; • 4) Evolocumab+Compound 5 group: injection of a pharmaceutical combinations containing Evolocumab and Compound 5 (Evolocumab 30 mg/kg, Compound 5: 0.12 mg/kg) by subcutaneous injection once every two days.
On the first day of the experiment, each group of wild-type hamsters was given high-fat and high-sugar feed (containing 10% lard, 10% cholesterol, and 60% fructose) and injected with samples according to the dosing regimen described above for each group, and blood was collected from the inner canthus vein of the hamsters on the day before administration and 7th day after administration, and plasma was anticoagulated with heparin sodium, and plasma was obtained by centrifugation for 10 min at 4° C. at 4,000 rpm, and the blood glucose level was measured by glucose assay kit (Biosino Bio-Technology and Science Incorporation.) […]

[4] = test system: transgenic mice overexpressing human PCSK9; test: Effect of Evolocumab in combination with Compound 5 on blood lipid (LDL-C) in hyperlipidemic mice; format: in vivo, mouse; details: conclusion in words from Table 3
Procedure: In this example, experimental animals were transgenic mice overexpressing human PCSK9 (4 weeks old). After being fed a high-fat diet for 37 days, their fasting lipid levels were measured.
On the 5th day after dosing, the lipid levels of the mice were measured. The lipid measurement method was as follows: Blood was collected from the mice via the inner canthus vein, plasma was obtained by centrifuging whole blood at 4° C. and 4000 rpm for 10 minutes with sodium heparin as an anticoagulant. LDL-C levels were measured using an LDL-C assay kit (Nanjing Jiancheng Bioengineering Institute).
The blood lipid data obtained were normalized using the following method: The blood lipid of each group before administration was taken as baseline, and the relative concentration of lipid at the corresponding time point obtained by comparing the blood lipid at the monitoring points after administration with that before administration. The relative concentration of blood lipid is represented as ‘x±s’, with ‘x’ representing the mean value of the data and ‘s’ representing the standard deviation. Variance analysis was conducted using GraphPad Prism software.

[5] = Reduced CE-SDS light and heavy chain ratio of Evolocumab (storage stability); format: physicochemical; details: 4° C., reference of one-month study of Suspension Formulation-2
Excerpt: The Acidic and Alkaline Peak ratio of Evolocumab monoclonal antibody in Suspension Formulation-2 falls within the quality standard range of originator product. (main peak≥51%, alkaline peak≤16%). • (4) The results of reduced CE-SDS testing for the light-heavy chain ratio of Evolocumab monoclonal antibody in Suspension Formulation-2 are presented in Table 22: […]

[6] = CEX-HPLC acid-to-base peak ratio of Evolocumab (storage stability); format: physicochemical; details: 4° C., reference of one-month study of Suspension Formulation-2

Question: What does the source list for Alirocumab?
Answer: Blood glucose (relative concentration) [1]: 0.71 ± 0.049; Blood glucose decline rate E value [1]: 0%; hypoglycemic function ([1]; conclusion in words from Table 1): did not show a hypoglycemic function

Question: With Semaglutide as the molecule, how does the “Blood glucose (relative concentration)” value [1] read?
Answer: The value was 0.61 ± 0.062.

Question: And the “Blood glucose decline rate E value” [1]?
Answer: Its value is 14.1%.

B1: Evolocumab (antibody, chains of the INN, looked up, V domains shown)
VH: EVQLVQSGAEVKKPGASVKVSCKASGYTLTSYGISWVRQAPGQGLEWMGWVSFYNGNTNYAQKLQGRGTMTTDPSTSTAYMELRSLRSDDTAVYYCARGYGMDVWGQGTTVTVSS
VL: ESALTQPASVSGSPGQSITISCTGTSSDVGGYNSVSWYQQHPGKAPKLMIYEVSNRPSGVSNRFSGSKSGNTASLTISGLQAEDEADYYCNSYTSTSMVFGGGTKLTVL
notes: PCSK9 antibody; source is Repatha®, commercially available from Amgen
Question: With B1 as the molecule, how does the body weight ([2]; single s.c. 1× dose (K2 530 ug/kg Compound 5; K3, K4 12.3 mg/kg Evolocumab), FIGS. 1-2) read?
Answer: The body weight was “did not experience weight loss”.

Question: What about the LDL-C ([2]; single s.c. 1× dose (K3, K4 12.3 mg/kg Evolocumab), FIG. 5) of the same molecule?
Answer: Its LDL-C is “ability to lower LDL-C levels was consistent”.

Question: What about the “Blood glucose decline rate E value” ([3]; 7th day, versus control group, recorded as 0 if not significantly different from control) of the same molecule?
Answer: Its value is 0%.

Question: And the hypoglycemic function ([3]; conclusion in words from Table 2)?
Answer: Its hypoglycemic function is “did not show a hypoglycemic function”.

Question: And the lipid-lowering effect [4]?
Answer: Its lipid-lowering effect is “lipid-lowering effects”.

B2: Laboratory-Purified Evolocumab: Commercially available Evolocumab (Repatha®) purified in the laboratory, 140 mg/ml (antibody, chains of the INN, looked up, V domains shown)
VH: B1 VH
VL: B1 VL
Question: For B2, which “Pre-LC + LC + HC(%)” value [5] is on record?
Answer: The value was 98.79%.

Question: What about the “Alkaline Peak (%)” value [6] of the same molecule?
Answer: Its value is 10.569%.
